Reference: the RNAGym collection of RNA variant scans (doi:10.1073/pnas.2313332121)
Fewer inactive variants are shown than the library holds.

B1: TPR 5TU (parent)
chain: GGAUCUUCUCGAUCUAACAAAAAAGACAAAUCUGCCACAAAGCUUGAGAGCAUCUUCGGAUGCAGAGGCGGCAGCCUUCGGUGGCGCGAUAGCGCCAACGUUCUCAACUAUGACACGCAAAACGCGUGCUCCGUUGAAUGGAGUUUAUCAUG

Variants of: B1
Experiment: polymerase ribozyme fitness, log enrichment relative to wild type (log ratio); higher = more active; in vitro selection for triplet polymerase activity
How it was run: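 Both subunits of a heterodimeric triplet polymerase ribozyme were given their own mutant library, built by PCR and transcribed. Each library was annealed with a biotinylated primer, the partner subunit and triplets, incubated frozen at −7 °C, and its extended constructs gel-excised, captured on streptavidin beads and amplified by RT-PCR, all in one round done in triplicate. Fitness is the logarithm of genotype enrichment relative to wild-type enrichment, with replicates averaged by inverse-variance weighting. That logarithm is base 2, and Illumina-sequenced genotypes needed ≥10 input reads and ≥1 read per output.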
In the case of C96U U139A, the “polymerase ribozyme fitness (log ratio)” value is reported as -3.94. With C96A A115U A147C the “polymerase ribozyme fitness (log ratio)” value was -3.48. In the case of C96G G112C, the “polymerase ribozyme fitness (log ratio)” value is reported as -3.95. With G94A U139C the “polymerase ribozyme fitness (log ratio)” value was -3.82. For C96G C105U C116G A119U C132U, the “polymerase ribozyme fitness (log ratio)” value was -1.57. In the case of C96G U102G, the “polymerase ribozyme fitness (log ratio)” value is reported as -3.26. With C95U G141A the “polymerase ribozyme fitness (log ratio)” value was 0.432. With C96A C125U U130C the “polymerase ribozyme fitness (log ratio)” value was -0.299. With C93U C118U the “polymerase ribozyme fitness (log ratio)” value was -1.84. With A98G A120G C125A U144A the “polymerase ribozyme fitness (log ratio)” value was -1.16. In the case of C96U A107G G117A, the “polymerase ribozyme fitness (log ratio)” value is reported as ≤ -4.2. With C96U C105U the “polymerase ribozyme fitness (log ratio)” value was 0.67. With C96U C105A the “polymerase ribozyme fitness (log ratio)” value was -0.493. In the case of C96U C105G, the “polymerase ribozyme fitness (log ratio)” value is reported as -2.46. With A98U A138G the “polymerase ribozyme fitness (log ratio)” value was -3.32. With C96A U151C the “polymerase ribozyme fitness (log ratio)” value was -3.24. With C95U A98G C105U the “polymerase ribozyme fitness (log ratio)” value was 0.768. With A98G G124C the “polymerase ribozyme fitness (log ratio)” value was -0.819. For C96A U135C, the “polymerase ribozyme fitness (log ratio)” value was -1.91. For C96A A142U, the “polymerase ribozyme fitness (log ratio)” value was -1.24. For C96G C105G, the “polymerase ribozyme fitness (log ratio)” value was -1.92. For G94C C131U, the “polymerase ribozyme fitness (log ratio)” value was -1.79. In the case of C93U A119G G143U U145G, the “polymerase ribozyme fitness (log ratio)” value is reported as -3.92. In the case of G94A A137C, the “polymerase ribozyme fitness (log ratio)” value is reported as -3.2. With A98G A121G the “polymerase ribozyme fitness (log ratio)” value was -1.63. In the case of C96U U144G, the “polymerase ribozyme fitness (log ratio)” value is reported as -0.238. With G94C C116U the “polymerase ribozyme fitness (log ratio)” value was -0.0318. For C95A C96A U104C A142C, the “polymerase ribozyme fitness (log ratio)” value was -4.07. With G94U G128U U139A G141A the “polymerase ribozyme fitness (log ratio)” value was ≤ -4.2. For C95U A107G, the “polymerase ribozyme fitness (log ratio)” value was -4.16. For C95U U111G, the “polymerase ribozyme fitness (log ratio)” value was ≤ -4.2. In the case of C96A U139C, the “polymerase ribozyme fitness (log ratio)” value is reported as -3.61. With G94A C105A the “polymerase ribozyme fitness (log ratio)” value was -1.65. For C95A A98G, the “polymerase ribozyme fitness (log ratio)” value was 0.372. For C93U C114A, the “polymerase ribozyme fitness (log ratio)” value was -3.41. For A97C A98U U111G, the “polymerase ribozyme fitness (log ratio)” value was -3.78. For G94A C116U A122U G136A, the “polymerase ribozyme fitness (log ratio)” value was -0.164. For C95U C105G, the “polymerase ribozyme fitness (log ratio)” value was -0.337. In the case of C96G U109G G124C, the “polymerase ribozyme fitness (log ratio)” value is reported as -2.62. With G94A G133U the “polymerase ribozyme fitness (log ratio)” value was -3.19. With G94A G133C the “polymerase ribozyme fitness (log ratio)” value was -2.71. For C93U C95G, the “polymerase ribozyme fitness (log ratio)” value was -2.26. For A98G C132G G136C, the “polymerase ribozyme fitness (log ratio)” value was -4.12. With C93U G143C the “polymerase ribozyme fitness (log ratio)” value was -3.12. With C96U C149U the “polymerase ribozyme fitness (log ratio)” value was -0.874. With C96U U101G G124C the “polymerase ribozyme fitness (log ratio)” value was -0.75. For G94A U148A, the “polymerase ribozyme fitness (log ratio)” value was -3.08. With G94A U148C the “polymerase ribozyme fitness (log ratio)” value was -2.75. For C96U G141C, the “polymerase ribozyme fitness (log ratio)” value was -0.372. With C96U G141A the “polymerase ribozyme fitness (log ratio)” value was 0.0586. For C96U G126U A137C A138G, the “polymerase ribozyme fitness (log ratio)” value was ≤ -4.2. For C96A G152U, the “polymerase ribozyme fitness (log ratio)” value was -2.51. With A97U U109G the “polymerase ribozyme fitness (log ratio)” value was -1.62. With C95U A142U U145G the “polymerase ribozyme fitness (log ratio)” value was -2.47. With A97G G152A the “polymerase ribozyme fitness (log ratio)” value was -3.19. With C93U C95U C131U the “polymerase ribozyme fitness (log ratio)” value was -0.998. For C96U U109C, the “polymerase ribozyme fitness (log ratio)” value was -3.67. In the case of C93U G136A, the “polymerase ribozyme fitness (log ratio)” value is reported as -1.1. In the case of C93U G136C, the “polymerase ribozyme fitness (log ratio)” value is reported as -4.02. For C96A A120U G140U, the “polymerase ribozyme fitness (log ratio)” value was -3.09. In the case of C96A G117U A138U, the “polymerase ribozyme fitness (log ratio)” value is reported as ≤ -4.2. With A97U C125A the “polymerase ribozyme fitness (log ratio)” value was -0.436. With C93U U134A the “polymerase ribozyme fitness (log ratio)” value was -4.01. In the case of C96U C116U G140C U144G, the “polymerase ribozyme fitness (log ratio)” value is reported as -4.04. In the case of A97G C99G, the “polymerase ribozyme fitness (log ratio)” value is reported as -0.579. With A98G U104G C118U the “polymerase ribozyme fitness (log ratio)” value was -0.702. In the case of C96U A113G G136C, the “polymerase ribozyme fitness (log ratio)” value is reported as -3.93. With A98U G141U the “polymerase ribozyme fitness (log ratio)” value was 1.39. With C96U G126A the “polymerase ribozyme fitness (log ratio)” value was 0.845. With G94C A97U A150G the “polymerase ribozyme fitness (log ratio)” value was -1.52. For C93U C103U A107C C125A, the “polymerase ribozyme fitness (log ratio)” value was ≤ -4.2. With C96A U148A the “polymerase ribozyme fitness (log ratio)” value was -3.15. With C96G C108U the “polymerase ribozyme fitness (log ratio)” value was -2.5. In the case of C93U U104G, the “polymerase ribozyme fitness (log ratio)” value is reported as -1.8. In the case of A97G C131G, the “polymerase ribozyme fitness (log ratio)” value is reported as -3.21. For A97G C131A, the “polymerase ribozyme fitness (log ratio)” value was -2.32. For A98U U101G C129U U139C, the “polymerase ribozyme fitness (log ratio)” value was ≤ -4.2. With C95A the “polymerase ribozyme fitness (log ratio)” value was 0.441. In the case of C95U, the “polymerase ribozyme fitness (log ratio)” value is reported as -0.031. With G94C A97U G136C the “polymerase ribozyme fitness (log ratio)” value was -3.35. With C96U C123U the “polymerase ribozyme fitness (log ratio)” value was -0.655. With C96U C123A the “polymerase ribozyme fitness (log ratio)” value was -0.106. In the case of G94C A107G, the “polymerase ribozyme fitness (log ratio)” value is reported as -3.89. With C96A G112C the “polymerase ribozyme fitness (log ratio)” value was -3.31.
